Test results taken from publication doi:10.1101/2025.07.07.663466.

Biological target: T1, recombinant M. tuberculosis GroEL1 (M. tuberculosis), P9WPE9
T1 chain: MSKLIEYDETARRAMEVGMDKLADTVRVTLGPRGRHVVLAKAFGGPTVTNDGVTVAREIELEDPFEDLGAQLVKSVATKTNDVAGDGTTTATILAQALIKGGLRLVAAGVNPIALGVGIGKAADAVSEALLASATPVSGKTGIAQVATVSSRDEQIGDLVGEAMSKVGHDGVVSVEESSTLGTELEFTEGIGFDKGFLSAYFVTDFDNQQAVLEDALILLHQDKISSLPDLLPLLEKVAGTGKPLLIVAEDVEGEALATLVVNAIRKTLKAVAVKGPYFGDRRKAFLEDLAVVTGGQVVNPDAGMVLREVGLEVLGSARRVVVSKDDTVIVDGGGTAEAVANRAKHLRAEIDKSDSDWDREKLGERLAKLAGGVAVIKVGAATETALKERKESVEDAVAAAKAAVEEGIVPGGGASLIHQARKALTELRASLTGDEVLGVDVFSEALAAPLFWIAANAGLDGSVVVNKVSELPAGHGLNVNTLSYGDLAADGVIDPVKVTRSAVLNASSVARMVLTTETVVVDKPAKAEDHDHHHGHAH
Experiment: native gel or EMSA
Conditions: remark: other sources report otherwise

B1: recombinant M. tuberculosis GroEL1, P9WPE9 1-539 (natural protein)
chain: T1 chain
**Q.** How did the stoichiometry N turn out when B1 was run?
**A.** The stoichiometry N was 2.
